Measurements as given in patent publication US20240092908A1.

Assays:
[1] = biological target: fusion protein hPD1-HSA composed of a PD1 extracellular domain sequence and a human serum albumin sequence (human); assay: ELISA, hPD1-HSA coated 200 ng/well, HRP anti-human IgG Fc
[2] = biological target: fusion protein hPD1-HSA composed of a PD1 extracellular domain sequence and a human serum albumin sequence (human); assay: competitive ELISA, hPD1-HSA coated; competitor bio-hPDL1-FC, HRP-Streptavidin

Keytruda ® (antibody)
EC50 [1]: 0.181 nM | IC50 [2]: 1.72 nM
